B1: CPEB3 Ribozyme (parent)
chain: UAACAGGGGGCCACAGCAGAAGCGUUCACGUCGCAGCCCCUGUCAGAUUCUGGUGAAUCUGCGAAUUCUGCUGUAUAUCUC

Variants of B1 are the subject of this series. Kind of series: self-cleavage, relative activity (ratio to wild type); higher = more cleavage; in vitro, sequencing. In outline:
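Libraries of CPEB3 self-cleaving ribozyme mutants came from rounds of error-prone PCR and carried barcodes, which DNA sequencing matched to variants. In vitro transcription used T7 RNA polymerase at 37°C for 5 hours, with a further 15 min in DNase I before EDTA stopped the reaction; the ribozymes cleaved during both steps. The RNA was reverse transcribed with template switching and sequenced on Illumina. Relative activity is the cleaved/total read fraction of a variant divided by that of the unmutated ribozyme, averaged over three batches with at least 5 reads.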
For the variant UAACAGGGGGCCACAGCAGAAGCGUUCACGUCGCAGCCCUUGUCAGAUUCUGGUGAAUCUGCGAAUCCUGCUGUAUAUCUC [C40U U67C], the self-cleavage stood at 0.23.
UAACAGGGGGCCACAGCAGAAGCGUUCACGUCGCAGCCCUUGUCAGAUUCUGGUGAAUCUACGAAUUCUGCUGUAUAUCUC [C40U G61A]: the self-cleavage worked out at 0.42.
With UAACAGGGGGCCACAGCAGAAGCGUUCACGUCGCAGCCCUUGUCAGAUUCUGGUGAAUCUGCGAAUUCUGCAGUAUAUCUC [C40U U72A] the figure was 0.39; with UAACAGGGGGCCACAGCAGAAGCGUUCACGUCGCAGCCCUUGUCAGAUUCUGGUGAAUCUGCGAAUUCUGCGGUAUAUCUC [C40U U72G], 0.32.
Turning to UAACAGGGGGCCACAGCAGAAGCGUUCACGUCGCAGCCCUUGUCAGAUUCUGGUGAAUCUGCGAAUUCUGCCGUAUAUCUC [C40U U72C], the self-cleavage came to 0.9.
Turning to UAACAGGGGGCCACAGCAGAAGCGUUCACGUCGCAGCCCUUGUCAGAUUCUGGUGAACCUGCGAAUUCUGCUGUAUAUCUC [C40U U58C], the self-cleavage stood at 0.24.
As for UAACAGGGGGCCACAGCAGAAGCGUUCACGUCGCAGCCCUUGUCAGAUUCUGGUGAAACUGCGAAUUCUGCUGUAUAUCUC [C40U U58A], the self-cleavage came out at 0.3.
Turning to UAACAGGGGGCCACAGCAGAAGCGUUCACGUCGCAGCCCUUGUCAGAUUCUGGUGAAUCUGCGAAUUCUGCUGUGUAUCUC [C40U A75G], the self-cleavage was found to be 0.5.
As for UAACAGGGGGCCACAGCAGAAGCGUUCACGUCGCAGCCCUUGUCAGAUUCUGGUGAAUCUGCGAAUUCUGCUGUUUAUCUC [C40U A75U], the self-cleavage amounted to 0.74.
UAACAGGGGGCCACAGCAGAAGCGUUCACGUCGCAGCCCUUGUCAGUUUCUGGUGAAUCUGCGAAUUCUGCUGUAUAUCUC [C40U A47U]: the self-cleavage is 0.32.
As for UAACAGGGGGCCACAGCAGAAGCGUUCACGUCGCAGCCCUUGUCAGGUUCUGGUGAAUCUGCGAAUUCUGCUGUAUAUCUC [C40U A47G], the self-cleavage turned out to be 0.5.
With UAACAGGGGGCCACAGCAGAAGCGUUCACGUCGCAGCCCUUGUCAGAUUCUGGUGAAUCUGCGAAUUCUGCUGUAUAUGUC [C40U C79G] the figure was 1.24; with UAACAGGGGGCCACAGCAGAAGCGUUCACGUCGCAGCCCUUGUCAGAUUCUGGAGAAUCUGCGAAUUCUGCUGUAUAUCUC [C40U U54A], 1.08; with UAACAGGGGGCCACAGCAGAAGCGUUCACGUCGCAGCCCUUGUCAGAUUCUGGGGAAUCUGCGAAUUCUGCUGUAUAUCUC [C40U U54G], 0.6.
With UAACAGGGGGCCACAGCAGAAGCGUUCACGUCGCAGCCCUUGUCAGAUUCUGGCGAAUCUGCGAAUUCUGCUGUAUAUCUC [C40U U54C], the self-cleavage worked out at 0.7.
Regarding UAACAGGGGGCCACAGCAGAAGCGUUCACGUCGCAGCCCUUGUAAGAUUCUGGUGAAUCUGCGAAUUCUGCUGUAUAUCUC [C40U C44A], the self-cleavage was found to be 0.52.
To UAACAGGGGGCCACAGCAGAAGCGUUCACGUCGCAGCCCUUGUCAGAUUCUGGUGAAUUUGCGAAUUCUGCUGUAUAUCUC [C40U C59U] belongs 0.28; to UAACAGGGGGCCACAGCAGAAGCGUUCACGUCGCAGCCCUUGUCAGAUUCUGGUGAAUCUGCGAAUUCUGCUGUAUGUCUC [C40U A77G], 0.58; to UAACAGGGGGCCACAGCAGAAGCGUUCACGUCGCAGCCCUUGUCAGAUUCUGGUGAAUCUGCGAAUUCUGCUGUAUCUCUC [C40U A77C], 0.74.
For UAACAGGGGGCCACAGCAGAAGCGUUCACGUCGCAGCCCUUGUCAGAUUCUGGUGAAUCUGCGAAUUCUGCUGUAUUUCUC [C40U A77U], the self-cleavage stood at 0.81.
With UAACAGGGGGCCACAGCAGAAGCGUUCACGUCGCAGCCCUUGUCAGAUUCUGGUGAAUCUGCGAAUUCUGCUGGAUAUCUC [C40U U74G] the figure was 1.04; with UAACAGGGGGCCACAGCAGAAGCGUUCACGUCGCAGCCCUUGUCAGAUUCUGGUGAAUCUGCGAAUUCUGCUGCAUAUCUC [C40U U74C], 1.08.
In the case of UAACAGGGGGCCACAGCAGAAGCGUUCACGUCGCAGCCCUUGUCAGAUUCUGGUGAUUCUGCGAAUUCUGCUGUAUAUCUC [C40U A57U], the self-cleavage was determined as 0.61.
To UAACAGGGGGCCACAGCAGAAGCGUUCACGUCGCAGCCCUUGUCAGAUUCUGGUGACUCUGCGAAUUCUGCUGUAUAUCUC [C40U A57C] belongs 0.46; to UAACAGGGGGCCACAGCAGAAGCGUUCACGUCGCAGCCCUUGUCAGAUUCUGGUGAGUCUGCGAAUUCUGCUGUAUAUCUC [C40U A57G], 0.36; to UAACAGGGGGCCACAGCAGAAGCGUUCACGUCGCAGCCCUUGUCAGAUUCUGGUGAAUCUGCGUAUUCUGCUGUAUAUCUC [C40U A64U], 0.27.
As for UAACAGGGGGCCACAGCAGAAGCGUUCACGUCGCAGCCCUUGUCAGAUUCUGGUGAAUCUGCGGAUUCUGCUGUAUAUCUC [C40U A64G], the self-cleavage worked out at 0.54.
To UAACAGGGGGCCACAGCAGAAGCGUUCACGUCGCAGCCCUUGUCAGAUUCUGGUGAAUCUGCGAAUUCUGAUGUAUAUCUC [C40U C71A] belongs 0.17; to UAACAGGGGGCCACAGCAGAAGCGUUCACGUCGCAGCCCGUGUCAGAUUCUGGUGAAUCUGCGAAUUCUGCUGUAUAUCCC [C40G U80C], 0.19; to UAACAGGGGGCCACAGCAGAAGCGUUCACGUCGCAGCCCUUGUCAGAUUAUGGUGAAUCUGCGAAUUCUGCUGUAUAUCUC [C40U C50A], 0.46.
Regarding UAACAGGGGGCCACAGCAGAAGCGUUCACGUCGCAGCCCUUGUCAGAUACUGGUGAAUCUGCGAAUUCUGCUGUAUAUCUC [C40U U49A], the self-cleavage amounted to 0.2.
As for UAACAGGGGGCCACAGCAGAAGCGUUCACGUCGCAGCCCUUGUCAGAUCCUGGUGAAUCUGCGAAUUCUGCUGUAUAUCUC [C40U U49C], the self-cleavage came to 0.36.
With UAACAGGGGGCCACAGCAGAAGCGUUCACGUCGCAGCCCUUGUCAGAUUCUGGUGAAUCUGCGAACUCUGCUGUAUAUCUC [C40U U66C], the self-cleavage came out at 0.33.
With UAACAGGGGGCCACAGCAGAAGCGUUCACGUCGCAGCCCUUGUCAGAUUCUGGUGAAUCUGCGAAAUCUGCUGUAUAUCUC [C40U U66A] the figure was 0.23.
